Publication PMC4058850, “The Bifunctional Pyruvate Decarboxylase/Pyruvate Ferredoxin Oxidoreductase from Thermococcus guaymasensis” (Archaea, 2014)
Blank lines part the entries; values can stand above or below the molecule they belong to.

Tests used:
[1] = target: T1, PfPDC/POR (Pyrococcus furiosus, UniProt Q51804+Q51805); assay: POR activity, pyruvate- and CoA-dependent methyl viologen reduction; format: biochemical; details: POR reaction; 80°C, pH 8.4, anaerobic; 100 μM CoASH, 5 mM pyruvate
T1 construct: gene porA; native, purified anaerobically from P. furiosus cells; no tag; dimer of heterotetramers, about 260 kDa; with Pyruvate synthase subunit PorD; Pyruvate/ketoisovalerate oxidoreductases common subunit gamma

[2] = target: T1, PfPDC/POR; assay: PDC activity with desulfo-CoA substituted for CoA; format: biochemical; details: PDC reaction; 80°C, anaerobic
[3] = target: T2, TgPDC/POR (Thermococcus guaymasensis, UniProt W8CQB2+W8CQR1); assay: PDC activity with desulfo-CoA substituted for CoA; format: biochemical; details: PDC reaction; 80°C, anaerobic
T2 construct: gene porA; native, purified anaerobically from T. guaymasensis cells; no tag; dimer of heterotetramers, 258 kDa by gel filtration; with Pyruvate synthase subunit PorD; Pyruvate/ketoisovalerate oxidoreductases common subunit gamma

[4] = target: T2, TgPDC/POR; assay: POR activity; format: biochemical; details: POR reaction; concentration not given
[5] = target: bifunctional pyruvate decarboxylase/pyruvate ferredoxin oxidoreductase from Thermococcus guaymasensis, heterotetramer of PorA, PorB, PorD and Por/VorG (Thermococcus guaymasensis (endogenous in DSM 11113)) (UniProt W8CQB2); assay: SEC; native enzyme purified from T. guaymasensis (about 1 mg) on HiLoad Superdex-200 in buffer E (50 mM Tris pH 7.8, 5% glycerol, 100 mM KCl, 2 mM DTT, 2 mM SDT), 2.5 mL/min, calibrated with protein standards; SDS-PAGE of the enzyme after the column; apparent Mr 258,000
[6] = target: the molecule itself; assay: SEC; native enzyme from P. furiosus; HiLoad Superdex-200 in buffer E as a step of the purification; native molecular weight of approximately 260 kDa told in the discussion, how it was estimated is not told for this enzyme
[7] = substrate: CC(=O)C(=O)O; assay: PDC activity, acetaldehyde as DNPH hydrazone by RP-HPLC; format: biochemical, Thermococcus guaymasensis; details: PDC (nonoxidative decarboxylation) reaction, 1 mM CoA, 0.1 mM TPP, Mg2+, optimal pH (9.5), 80°C, anaerobic
Text: PDC activity, acetaldehyde as DNPH hydrazone by RP-HPLC on TgPDC/POR

[8] = substrate: CC(=O)C(=O)O; assay: purified protein; format: biochemical, Thermococcus guaymasensis; details: POR (oxidative decarboxylation) reaction, 0.1 mM CoA, 1 mM MV, 0.4 mM TPP, Mg2+, pH 8.4 (optimal pH), 80°C, anaerobic

T2 sequence (W8CR61 1-105 partner, one chain of several): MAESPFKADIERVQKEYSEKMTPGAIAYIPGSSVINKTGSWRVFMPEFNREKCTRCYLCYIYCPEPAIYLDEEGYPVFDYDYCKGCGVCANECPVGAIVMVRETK
T2 sequence (W8CQB1 1-185 partner, one chain of several): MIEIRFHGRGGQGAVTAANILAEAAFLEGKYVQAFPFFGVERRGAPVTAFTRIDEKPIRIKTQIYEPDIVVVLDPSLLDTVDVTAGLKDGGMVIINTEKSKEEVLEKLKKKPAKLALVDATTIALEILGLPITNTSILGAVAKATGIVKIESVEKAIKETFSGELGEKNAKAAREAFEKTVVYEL

Molecule: CC(C)(COP(=O)(O)OP(=O)(O)OC[C@H]1O[C@@H](n2cnc3c(N)ncnc32)[C@H](O)[C@@H]1OP(=O)(O)O)[C@@H](O)C(=O)NCCC(=O)NCCS [coenzyme A]
POR activity, pyruvate- and CoA-dependent methyl viologen reduction [1]: The pyruvate- and coenzyme A-dependent reduction of the methyl viologen was measured for POR activities

% of activity with CoA [2]: ~ 80% | % of activity with CoA [3]: ~ 75%
Molecule: CCNC(=O)CCNC(=O)[C@H](O)C(C)(C)COP(=O)(O)OP(=O)(O)OC[C@H]1O[C@@H](n2cnc3c(N)ncnc32)[C@H](O)[C@@H]1OP(=O)(O)O [desulfo-CoA]
completely inhibitory [4]: desulfo-CoA, an analogue of CoA, was completely inhibitory for the oxidation (POR) reaction

stoichiometry N [5]: 2
Molecule: bifunctional pyruvate decarboxylase/pyruvate ferredoxin oxidoreductase from Thermococcus guaymasensis, heterotetramer of PorA, PorB, PorD and Por/VorG (from UniProt W8CQB2 1-331; W8CR61 1-105) (complex)

B1: bifunctional pyruvate decarboxylase/pyruvate ferredoxin oxidoreductase from Pyrococcus furiosus, heterotetramer (complex)
chain 1: MPIRKVMKANEAAAWAAKLAKPKVIAAFPITPSTLIPEKISEFVANGELDAEFIKVESEHSAISACVGAAAAGVRTFTATASQGLALMHEILFIAAGMRLPIVMAIGNRALSAPINIWNDWQDTISQRDTGWMQFYAENNQEALDLILIAYKVAEDERVLLPAMVGFDAFILTHTVEPVEIPDQEVVDEFLGEYEPKHAYIDPARPITQGSLAFPAHYMESRYTVWEAMERAKKVIDEAFAEFEKKFGRKYQKIEEYKTEDADIIFVTMGSLAGTLKEWIDKKREEGYKVGAAKITVYRPFPVEEIRELAKKAKVLAFLEKNITIGLYGAVFTDASAALINESEKPLMVDFIVGLGGRDVTFNQLDEALEIAEKALKEGKVENPINWIGLRWELVK
chain 2: MAVRKPPITTREYWAPGHAACAGCGCATALRLATKALSEAMEEKYGDPNAFAIAHATGCMEVVSAVFPYTAWKAPWIHVAFENAAAVASGIEAAWKKLGRKGKILAIGGDGGTADIGLQALSGMLERWHNVLYLMYDNEAYMNTGIQRSSSTPYGAWTTTSPPGKYSVGEDKPKKWVALIAAAHQIPYVATASIGNPLDFVRKIKKAGKIDGPAFVQVLCTCPTGWRSPLEKGVEIARLAIETGIWPLFEIENGDIWNIKIQPPGGGAKVYKEGNRVVRIEFKKPIEEYLKLQGRFKHLFKRPEAIEELRNQVKAMWKVLGVEAILPRPEE
chain 3: MIEVRFHGRGGQGAVTAANILAEAAFLEGKYVQAFPFFGVERRGAPVTAFTRIDNKPIRIKTQIYEPDVVVVLDPSLLDAVDVTAGLKDEGIVIVNTEKSKEEVLEKLKKKPKKLAIVDATTIALEILGLPITNTAILGAVAKATGLVKIESIEEAIKDTFSGELGEKNARAAREAYEKTEVFEL
chain 4: MAESPFKADIERAQKELSEKMTPGAIVYIPGSSVINKTGSWRVFKPEFNRDKCVRCYLCYIYCPEPAIYLDEEGYPVFDYDYCKGCGICANECPTKAIEMVREVK
notes: alpha subunit (PorA) of pyruvate ferredoxin oxidoreductase, Pyrococcus furiosus; beta subunit (PorB) of pyruvate ferredoxin oxidoreductase, Pyrococcus furiosus; gamma subunit (Por/VorG) of pyruvate ferredoxin oxidoreductase, Pyrococcus furiosus; delta subunit (PorD) of pyruvate ferredoxin oxidoreductase, Pyrococcus furiosus; One heterotetramer (one copy of each subunit); the native enzyme is …
stoichiometry N [6]: 2

B2: TgPDC/POR (Thermococcus guaymasensis) (protein)
chain 1: MPIRTVMKANEAAAWAAKLAKPKVIAAFPITPSTLVPEKISEFVANGELDAEFIKVESEHSAISACVGASAAGVRTFTATASQGLALMHEVLFIAAGMRLPIVMAIGNRSLSAPINIWNDWQDSISERDTGWLQFYAENNQEALDLILIAYKVAEDERVLLPAMVGFDAFILTHTVEPVEIPDQELVDEFLGEYEPKHAYLASARPLTQGTLAFPAHYMEARYTVWQANENAKKVIDEVFAEFEKRFGRKYQKVEEYRTDDAEIIFVTMGSLAGTVKEYVDHLREKGIKAGAAKLTVYRPFPIEEVRELAKKAKVLALLEKNVTFSVGGALFQDFSRALINQEEKPKIVDFILGLGGRDVTFKDLDEALAIAQKALNGEKVDEVNWIGLRKEIL
chain 2: MAVRKPPITTREYWAPGHAACAGCGCAIALKLATKAFSEAMEEKYGDPNAFAIAQATGCMEVVSAVFPYTAWKVPWVHVAFENAAAAASGVEAAWKKLGRKGKILAIGGDGGTADIGMQALSGMLERRHNVVYLMYDNEAYMNTGIQRSSSTPYGAWTTTSPPGKYSIGEDKPKKWVALIAAAHQVPYVATASIGNPFDFVRKMKKAAKVDGPAFVQVHCTCPTGWKSPLEKGVEIARLAIETGVWPLFEIENGDFHNIKIQPPGGGAKVTREGGRIVAIEFKKPIEEYLKLQGRFKHLFKQPEAIDVMREQIKAMWKVLGVDVTLPKPEE
notes: native, purified anaerobically from T. guaymasensis cells; no tag; dimer of heterotetramers, 258 kDa by gel filtration; with Pyruvate synthase subunit PorD; Pyruvate/ketoisovalerate oxidoreductases common subunit gamma
Km [7]: 250 ± 50 µM | Vmax [7]: 3.8 µmol/min/mg | Km [8]: 530 ± 30 µM | Vmax [8]: 18 µmol/min/mg
